# Source: US20020076693A1, “Novel cell surface receptor for HIV retroviruses, therapeutic and diagnostic uses” (priority 1997, published 2002)
# B1: MIP-1β: β chemokine (protein, UniProt P13236 24-92, looked up)
# C-C motif chemokine 4: APMGSDPPTACCFSYTARKLPRNFVVDYYETSSLCSQPAVVFQTKRSKQVCADPSESWVQEYVYDLELN
# B2: MIP-1α: β chemokine (protein, UniProt P10147 24-92, looked up)
# C-C motif chemokine 3: SLAADTPTACCFSYTSRQIPQNFIADYFETSSQCSKPGVIFLTKRSRQVCADPSEEWVQKYVSDLELSA
# B3: Rantes: β chemokine, natural ligand of CCR5 (protein, UniProt P13501 24-91, looked up)
# C-C motif chemokine 5: SPYSSDTTPCCFAYIARPLPRAHIKEYFYTSGKCSNPAVVFVTRKNRQVCANPEKKWVREYINSLEMS
# System: HIV-1 Bal
# Assay: Infection of human monocyte-derived macrophages by HIV-1 (p24)
# Assay type: cell-based
# Conditions: HIV-1 BaL (TASP also Ada); p24 in supernatant
# Experimental: Macrophages are infected with BaL or Ada HIV-1 viruses, in the presence of 2 μM, 1 μM or 0.1 μM of 5[Kψ (CH2N)PR]-TASP. Cells are preincubated during 30 min at 4° C. in the presence of 5[Kψ (CH2N)PR]-TASP before adding the virus. Every 3 days interval, the whole culture supernatant is collected and is replaced by RPMI 1640 culture medium supplemented with 20% fetal calf serum (FCS), 1% antibiotics, 1% glutamine, in addition to 5[Kψ (CH2N)PR]-TASP that is kept present in the culture medium until day 14 after in vitro infection. Virus production is quantitated by titration of p24 protein in the culture supernatant at different times (days) after in vitro infection. Each value represented in the graphs represents the mean of two test samples.
# Macrophages are infected by the BaL VIH-1 virus in the presence of 100 μg/ml of anti-P95, anti-P40 and anti-P30 antibody. Cells are preincubated during 30 min at 4° C. in the presence of each kind of antibody before adding the virus. The antibodies are kept present in the culture medium during the whole infection period of time. The experimental conditions are identical to those detailed in 4 +L4. The results are representative of two independent experiments.
# Cells are preincubated during 30 min at 4° C. in the presence of the different molecules either alone or in association before adding the virus. Every three days period, the whole culture supernatant is collected and is replaced by RPMI 1640 culture medium supplemented with 20% fetal calf serum (FCS), 1% antibiotics, 1% glutamine, in addition to each tested molecule. Virus production is quantitated by titration of p24 protein in the culture supernatant at different times (days) after in vitro infection. Every value reprented in the graphs represents the mean of two test samples.
row,Molecule,effect on infection of human macrophages by HIV-1
1,B1,inhibit
2,B2,weaker inhibitory effect
3,B3,inhibit
